From publication PMC7732191 (Science Advances, 2020) come the findings set out here.

This data set deals with the molecule itself. Briefly: cryo-EM structure.

B1: full-length human KCC2a (potassium-chloride cotransporter 2, SLC12A5) (natural protein, UniProt Q9H2X9-1 1-1139, looked up)
chain: MSRRFTVTSLPPAGPARSPDPESRRHSVADPRHLPGEDVKGDGNPKESSPFINSTDTEKGKEYDGKNMALFEEEMDTSPMVSSLLSGLANYTNLPQGSREHEEAENNEGGKKKPVQAPRMGTFMGVYLPCLQNIFGVILFLRLTWVVGIAGIMESFCMVFICCSCTMLTAISMSAIATNGVVPAGGSYYMISRSLGPEFGGAVGLCFYLGTTFAGAMYILGTIEILLAYLFPAMAIFKAEDASGEAAAMLNNMRVYGTCVLTCMATVVFVGVKYVNKFALVFLGCVILSILAIYAGVIKSAFDPPNFPICLLGNRTLSRHGFDVCAKLAWEGNETVTTRLWGLFCSSRFLNATCDEYFTRNNVTEIQGIPGAASGLIKENLWSSYLTKGVIVERSGMTSVGLADGTPIDMDHPYVFSDMTSYFTLLVGIYFPSVTGIMAGSNRSGDLRDAQKSIPTGTILAIATTSAVYISSVVLFGACIEGVVLRDKFGEAVNGNLVVGTLAWPSPWVIVIGSFFSTCGAGLQSLTGAPRLLQAISRDGIVPFLQVFGHGKANGEPTWALLLTACICEIGILIASLDEVAPILSMFFLMCYMFVNLACAVQTLLRTPNWRPRFRYYHWTLSFLGMSLCLALMFICSWYYALVAMLIAGLIYKYIEYRGAEKEWGDGIRGLSLSAARYALLRLEEGPPHTKNWRPQLLVLVRVDQDQNVVHPQLLSLTSQLKAGKGLTIVGSVLEGTFLENHPQAQRAEESIRRLMEAEKVKGFCQVVISSNLRDGVSHLIQSGGLGGLQHNTVLVGWPRNWRQKEDHQTWRNFIELVRETTAGHLALLVTKNVSMFPGNPERFSEGSIDVWWIVHDGGMLMLLPFLLRHHKVWRKCKMRIFTVAQMDDNSIQMKKDLTTFLYHLRITAEVEVVEMHESDISAYTYEKTLVMEQRSQILKQMHLTKNEREREIQSITDESRGSIRRKNPANTRLRLNVPEETAGDSEEKPEEEVQLIHDQSAPSCPSSSPSPGEEPEGEGETDPEKVHLTWTKDKSVAEKNKGPSPVSSEGIKDFFSMKPEWENLNQSNVRRMHTAVRLNEVIVKKSRDAKLVLLNMPGPPRNRNGDENYMEFLEVLTEHLDRVMLVRGGGREVITIYS
modifications: N-acetylglucosamine (glycosylation) at multiple Asn residues of the ECD
On to B1, for which the “stoichiometry N” value is 2.
